Here are results for one molecule from patent publication US20090226404A1 (published 2009).

The target in assay [1] is T1, gp100 peptide on HLA-A*02:01 (human).
T1 peptide: YLEPGPVTA
Put plainly: 51Cr release with peptide titrated on T2 cells; RNA-electroporated CD8+ T cells 24 h after electroporation; upper end of the range; full-length, on cells. How it is done: (§1) CD8⁺ T cells were electroporated with EGFP RNA (Neg) or RNA coding for the TCR α and β chain, and were used as effector cells in cytotoxicity assays 24 h after electroporation. T2 cells loaded with different concentrations of gp100₂₈₀₋₂₈₈ peptide (as indicated) were used as target cells, and % lysis was calculated. The target to effector cell ratio was 1:15. The peptide concentration corresponding to 50% of the maximum lysis (ED₅₀), used to measure the cytolytic efficiency, is indicated by the dotted line. Average values of triplicates±SD are shown. Data of one (out of five) representative T cell donor is shown.
(§2) From previous published work, we know that the cytolytic efficiency of the parental 296 CTL clone was preserved following retroviral transduction of TCR genes into T cells. To test the avidity of the TCR RNA-transfected T cells, we performed a cytotoxicity assay (24 h after electroporation) in which we titrated the gp100₂₈₀₋₂₈₈ peptide on T2 target cells (FIG. 6). The peptide concentration corresponding to 50% of the maximum lysis (i.e. ED₅₀) of the TCR RNA-transfected T cells ranged from 300-1000 pM in three independent experiments (FIG. 6). This is in the same range as the cytolytic efficiency of the retrovirally transduced T cells (ED₅₀=300 pM). Both approximate the cytolytic efficiency of the parental 296 CTL clone, which has an ED₅₀ of 50 pM [24]. […]

The target in assay [2] is T1, gp100 peptide on HLA-A*02:01. Put plainly: cytolytic efficiency of retrovirally transduced T cells, peptide titration; value taken from earlier work (ref. 24); full-length, on cells.
Assay [3] shares this target. Put plainly: cytolytic efficiency of the parental 296 CTL clone, peptide titration; value cited from ref. 24; T cell clone or line.
For assay [4] the target is unchanged. Nature of the assay: 51Cr release with peptide titrated on T2 cells; RNA-electroporated CD8+ T cells 24 h after electroporation; ED50 is the peptide concentration at 50% of maximum lysis; lower end of the range; full-length, on cells. How it is done:
as §1, §2

Assay [5] addresses T2, gp100 (209-217 analogue) peptide on HLA-A*02:01 (human).
T2 peptide: IMDQVPFSV
Put plainly: killing.

B1: gp100-specific 296 TCR (TCR, V domains shown)
Valpha: GENVEQHPSTLSVQEGDSAVIKCTYSDSASNYFPWYKQELGKGPQLIIDIRSNVGEKKDQRIAVTLNKTAKHFSLHITETQPEDSAVYFCAASTSGGTSYGKLTFGQGTILTVHP
Vbeta: EAQVTQNPRYLITVTGKKLTVTCSQNMNHEYMSWYRQDPGLGLRQIYYSMNVEVTDKGDVPEGYKVSRKEKRNFPLILESPSPNQTSLYFCASSLGSSYEQYFGPGTRLTVT
B1: the EC50 of peptide in assay [1] was at most 1 nM; in assay [2] it was 0.3 nM; in assay [3] it was 0.05 nM; in assay [4], at least 0.3 nM. Besides, the binding result in assay [5] is listed as “no recognition”.
